Assay results published in paper PMC9477564 (Nature structural & molecular biology, 2021).

Target: the molecule itself
Test: SEC-MALS

B1: Get3(D68N) (enzyme)
chain: not shown
stoichiometry N: 2
